Here are results for one substance from PMC5366859.

The subject of this data set is MBP-rAtCHE (Arabidopsis thaliana (homoeolog cloned from resynthesized A. thaliana x A. arenosa allotetraploid)). Description: EMSA. Conditions: reference for normalization; 25 mM HEPES pH 7.5, 2.5 mM DTT, 75 mM KCl, 10% glycerol, 1.25 ng poly-dIdC, 10 nM (~15 fmol) DNA, on ice 20 min; 5% native PAGE. A general note: A gel shift assay detects complexes by their altered migration in electrophoresis.

The substance AtCCA1p gave a binding signal (fold (reference for rAaCHE)) of 1.
